Test results from PMC12499889, “Voltage-matrix nanopore profiling for the discrimination of protein mixtures”.

Target: carcinoembryonic antigen (CEA) (UniProt P06731 35-685)
Assay: solid-state nanopore (single-molecule); 3.6 M LiCl; 10 nM CEA, 1 uM aptamer; shift in signal distribution; 3.6 M LiCl, 10 mM HEPES-KOH pH 8.0; 1 uM aptamer incubated with 10 nM CEA for 1 h; temperature not stated; nanopore at -50 to -300 mV
Conditions: protein: commercial

Chain of carcinoembryonic antigen (CEA) (P06731 35-685): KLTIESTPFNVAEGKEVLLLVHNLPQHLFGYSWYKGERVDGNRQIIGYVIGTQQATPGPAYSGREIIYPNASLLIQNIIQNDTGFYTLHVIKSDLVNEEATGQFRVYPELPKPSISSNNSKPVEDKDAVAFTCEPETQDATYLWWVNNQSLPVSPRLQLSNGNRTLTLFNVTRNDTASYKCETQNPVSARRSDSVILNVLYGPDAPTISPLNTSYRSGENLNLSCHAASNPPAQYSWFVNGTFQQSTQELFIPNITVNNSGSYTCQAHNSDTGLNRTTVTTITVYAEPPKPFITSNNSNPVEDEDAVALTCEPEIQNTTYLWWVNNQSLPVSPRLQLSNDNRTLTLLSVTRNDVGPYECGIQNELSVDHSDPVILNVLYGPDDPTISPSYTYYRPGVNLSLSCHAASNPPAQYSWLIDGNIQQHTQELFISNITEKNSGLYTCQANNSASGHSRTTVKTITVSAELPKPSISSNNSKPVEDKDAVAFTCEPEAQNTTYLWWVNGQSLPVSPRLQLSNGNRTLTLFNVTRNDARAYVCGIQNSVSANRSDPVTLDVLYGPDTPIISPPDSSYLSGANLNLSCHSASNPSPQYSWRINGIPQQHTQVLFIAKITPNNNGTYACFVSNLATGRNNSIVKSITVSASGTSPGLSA

B1: CEA DNA aptamer (ssDNA)
DNA: TCGCGCGAGTCGTCTGGGAGCTACGTTTAGCGAGTCCGACGCTCGGTGCCTCTTCGGGAGGACGATGCGG
B1: binds.
